Assay results as given in IntAct's records for PubMed 10633111.

B1: Protein virB8 (Agrobacterium tumefaciens (strain C58 / ATCC 33970)), P17798 (parent)
chain: MKGSEYALLVARETLAEHYKEVEAFQTARAKSARRLSKVIAAVATIAVLGNVAQAFTIATMVPLIRLVPVYLWIRPDGTVDSEVSVSRLPATQEEAVVNASLWEYVRLRESYDADTAQYAYDLVSNFSAPMVRQNYQQFFNYPNPTSPQVILGKHGRLEVEHIASNDVTPGVQQIRYKRTLIVDGKMPMASTWTATVRYEKVTSLPGRLRLTNPGGLVVTSYQTSEDTVSNAGHSEP
partner: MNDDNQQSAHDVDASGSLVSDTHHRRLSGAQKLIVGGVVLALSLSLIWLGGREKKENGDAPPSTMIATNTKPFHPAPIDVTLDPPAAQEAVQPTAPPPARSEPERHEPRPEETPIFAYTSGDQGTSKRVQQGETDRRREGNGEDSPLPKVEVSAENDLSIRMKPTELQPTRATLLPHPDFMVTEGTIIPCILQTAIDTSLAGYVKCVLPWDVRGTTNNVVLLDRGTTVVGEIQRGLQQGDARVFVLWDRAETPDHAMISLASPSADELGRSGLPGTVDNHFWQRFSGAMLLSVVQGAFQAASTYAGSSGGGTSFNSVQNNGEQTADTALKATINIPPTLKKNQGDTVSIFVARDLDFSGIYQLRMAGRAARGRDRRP
B2: Protein virB8 (Agrobacterium tumefaciens (strain C58 / ATCC 33970)), P17798 (parent)
chain: B1 chain
partner: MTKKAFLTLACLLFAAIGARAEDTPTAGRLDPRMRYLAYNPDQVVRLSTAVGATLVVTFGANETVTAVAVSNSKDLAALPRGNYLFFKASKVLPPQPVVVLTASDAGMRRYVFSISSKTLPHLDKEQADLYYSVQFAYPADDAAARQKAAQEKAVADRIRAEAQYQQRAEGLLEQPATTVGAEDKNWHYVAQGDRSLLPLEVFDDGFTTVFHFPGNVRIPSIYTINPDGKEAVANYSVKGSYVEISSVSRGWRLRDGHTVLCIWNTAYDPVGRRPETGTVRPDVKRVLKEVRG

Variants of: B1
Details: with virba_agrfc virB10, P17800

**Q.** For MKGSEYALLVARETLAEHYKEVEAFQTARAKSARRLSKVIAAVATIAVLGNVAQAFTIATMVPLIRLVPVYLWIRPDGTVDSEVSVLRLPATQEEAVVNASLWEYVRLRESYDADTAQYAYDLVSNFSAPMVRQNYQQFFNYPNPTSPQVILGKHGRLEVEHIASNDVTPGVQQIRYKRTLIVDGKMPMASTWTATVRYEKVTSLPGRLRLTNPGGLVVTSYQTSEDTVSNAGHSEP [S87L], which “effect of a mutation on the interaction” value is on record?
**A.** decreasing interaction

Variants of: B2
Details: with virb9_agrfc virB9, P17799

**Q.** How did the “effect of a mutation on the interaction” value turn out when MKGSEYALLVARETLAEHYKEVEAFQTARAKSARRLSKVIAAVATIAVLGNVAQAFTIATMVPLIRLVPVYLWIRPDGTVDSEVSVLRLPATQEEAVVNASLWEYVRLRESYDADTAQYAYDLVSNFSAPMVRQNYQQFFNYPNPTSPQVILGKHGRLEVEHIASNDVTPGVQQIRYKRTLIVDGKMPMASTWTATVRYEKVTSLPGRLRLTNPGGLVVTSYQTSEDTVSNAGHSEP [S87L] was run?
**A.** disrupting interaction
